Our source for the self-cleavage values is the RNAGym collection of RNA variant scans (doi:10.7554/elife.80360).

B1: Hairpin Ribozyme (parent)
chain: GUCCUCUUUCACGUGCGCGUGAAAGAGAGAAGUGAACCAGAGAAACACACGUUGUGGUAUAUUACCUGGUA

The variants in this series derive from B1. Description: self-cleavage, relative activity (ratio to wild type); higher = more cleavage; co-transcriptional.
On to G19U U53A, for which the self-cleavage came to 0.971.

In the case of G19U U53G, the self-cleavage was determined as 0.772.

As for G19U U53C, the self-cleavage stood at 0.952. Then G19C A71U, with 0.722. G19C A71G: the self-cleavage was determined as 1.07. Then G19U A59C, with 0.242. For G19A C37U, the self-cleavage is 0.567. Then U20A C46U, with 0.183; and U20A C48A, with 0.23. Then U20A C48G, with 0.219; and G19A G56U, with 0.123. In the case of U20A A41U, the self-cleavage turned out to be 1.16. Regarding U20A A41C, the self-cleavage was 1.28. Then G19A U63G, with 0.2; and G19C G34A, with 1.08; and U20C C46G, with 0.117. For G19A C48A, the self-cleavage came to 0.136. Then U20C U63C, with 0.184; and G19A A71G, with 0.857.

G19A A71U: the self-cleavage was 0.648. On to U20C A23G, for which the self-cleavage is 1.

For the variant U20A A23U, the self-cleavage was 0.785. Then U20A A23G, with 0.783; and U20G G29A, with 0.0828. Then U20G G29C, with 0.18; and U20A G42C, with 0.306; and G19U A31G, with 0.624. Then G19C A36C, with 0.374. For the variant C18U A43U, the self-cleavage stood at 0.102. Then U20A G54C, with 0.362. Then U20A G54U, with 0.547. Then C18U G42U, with 0.407. Consider G19A U52G, for which the self-cleavage turned out to be 0.735.

As to C18U U62G, the self-cleavage stood at 0.0807.

Turning to U20G G27C, the self-cleavage turned out to be 0.165.

Consider G19U U55G, for which the self-cleavage was 0.313. On to G19U U55A, for which the self-cleavage turned out to be 0.287. As to U20C G42C, the self-cleavage worked out at 0.313.

As for G19C U33G, the self-cleavage was 0.0947. Take G19A G21A: the self-cleavage came out at 0.659. Then G19A U53C, with 0.854. Then G19A U53G, with 0.691; and C18U G40A, with 0.265. Then C18U G40U, with 0.244; and U20A G27U, with 0.203. Turning to G19U A47U, the self-cleavage came out at 0.211.

For the variant G19A A43C, the self-cleavage came to 0.15. Then G19C C50A, with 0.264. Then G19U A24C, with 0.79; and G19U U70A, with 0.773. For G19U U70C, the self-cleavage amounted to 0.722. On to U20A U70C, for which the self-cleavage stood at 0.663. Take G19U A39C: the self-cleavage turned out to be 0.502. As to G19U A39U, the self-cleavage worked out at 0.324. Then U20A G69C, with 0.268; and U20A G69U, with 0.252; and G19A A45U, with 0.1. Then G19C A30U, with 0.161.

In the case of U20G A39C, the self-cleavage worked out at 0.461. Then U20C A71C, with 1.28. For the variant U20C A71U, the self-cleavage was determined as 0.79.

With G19U U33A, the self-cleavage was 0.237. For the variant G19U U33C, the self-cleavage amounted to 0.202. Then G19U U33G, with 0.117; and C18G U55G, with 0.311. For the variant U20A A49G, the self-cleavage stood at 0.437. Then U20G A22C, with 0.816; and C18U A26U, with 0.59. Then C18U A26G, with 0.975. As for G19A G68A, the self-cleavage is 0.265. Then G19A G68C, with 0.194; and U20G A61C, with 0.11. Then U20G A61G, with 0.257. Then G19C C46G, with 0.088; and G19C C46U, with 0.229. As to U20C A22U, the self-cleavage is 0.602. On to C18U U60A, for which the self-cleavage worked out at 0.883. Then G19U G42C, with 0.492; and C18U A41G, with 1.04; and U20C U53A, with 0.861. Then U20C U53G, with 0.708; and U20G A47U, with 0.0722; and U20G G25C, with 0.643. Then C18U A49G, with 0.567; and C18U A49C, with 0.193. Consider C18U C50U, for which the self-cleavage came to 0.326.

For G19C G56U, the self-cleavage was found to be 0.0712. Regarding G19U A41U, the self-cleavage is 1.24.

Consider G19C G32C, for which the self-cleavage turned out to be 0.0926. Regarding U20C G68C, the self-cleavage was 0.219. Then U20C G68U, with 0.257.

Consider G19U G57U, for which the self-cleavage stood at 0.207. As for U20A U62C, the self-cleavage is 0.446. Then U20A U62G, with 0.195; and U20C C65A, with 1; and U20C C65U, with 0.284. With G19U G32C, the self-cleavage came to 0.137. As for G19U G32U, the self-cleavage worked out at 0.118. On to U20G A64G, for which the self-cleavage amounted to 0.511. Turning to U20A G21C, the self-cleavage is 0.691.

G19U U20G: the self-cleavage came to 0.707. For U20A C37A, the self-cleavage worked out at 0.218. Then C18U U67G, with 0.303; and C18U C65U, with 0.373; and U20A A31U, with 0.148. Then G19A A31G, with 0.7; and U20G A45G, with 0.128; and G19C C48U, with 0.132. Then G19C C48A, with 0.122; and C18G U60A, with 0.9.

As for C18G U60C, the self-cleavage turned out to be 1.02.

Turning to C18G U60G, the self-cleavage turned out to be 0.483. In the case of G19C G29C, the self-cleavage was found to be 0.111. Then G19C U58A, with 0.569. As for U20A A59U, the self-cleavage was 0.144. In the case of U20C A31C, the self-cleavage came out at 0.0231. Regarding U20C A31G, the self-cleavage amounted to 0.469.

Regarding G19C G25U, the self-cleavage turned out to be 0.623. Take G19C G25A: the self-cleavage worked out at 0.512. U20A A44G: the self-cleavage came out at 0.112. For the variant U20A A44U, the self-cleavage was found to be 0.177. Then U20A G40A, with 0.242; and G19A A39U, with 0.404. C18U C66G: the self-cleavage was 0.202. Then U20G G21U, with 0.754; and U20C A43U, with 0.125. In the case of U20A A64U, the self-cleavage is 0.135. On to C18U G32A, for which the self-cleavage was found to be 0.124. Then C18U G32U, with 0.118.

For C18U G34C, the self-cleavage amounted to 1.44. For U20G A59C, the self-cleavage is 0.313. Regarding U20A A24C, the self-cleavage amounted to 0.81. For the variant G19A U33G, the self-cleavage came out at 0.175. Then G19A U33C, with 0.0941; and G19U A23G, with 0.932. Then G19A C50G, with 0.247; and G19A C50U, with 0.401; and G19C A64G, with 0.545. Consider G19A G29C, for which the self-cleavage worked out at 0.184. Consider G19A G29A, for which the self-cleavage came to 0.173.

Consider G19U C65U, for which the self-cleavage was found to be 0.306. Then G19A A22C, with 0.677; and U20A U60A, with 0.607; and G19A U58G, with 0.583. As for G19A U58A, the self-cleavage is 0.557. Then G19U A26C, with 0.238; and G19U A26G, with 0.849; and G19U C66U, with 0.334. As for G19A U20C, the self-cleavage was determined as 1.12. Turning to G19A U20A, the self-cleavage amounted to 0.762. Consider G19C A59C, for which the self-cleavage was determined as 0.225.

In the case of G19C A59U, the self-cleavage was 0.19. Then C18U G56U, with 0.115; and C18U G56C, with 0.179. Consider G19C A39G, for which the self-cleavage came out at 0.28. Take C18U C46U: the self-cleavage is 0.195.

As to U20C G54C, the self-cleavage was determined as 0.373. Turning to C18U A47U, the self-cleavage is 0.178. As for U20A A36G, the self-cleavage came out at 0.858.

As to U20C A36G, the self-cleavage was 1.

Consider C18U A71G, for which the self-cleavage turned out to be 1.09.

With C18U A71C, the self-cleavage stood at 1.33.

In the case of G19C G42U, the self-cleavage is 0.24. Then G19A C38G, with 0.159; and U20C A39U, with 0.315; and U20C A39G, with 0.311.

As for U20G C48A, the self-cleavage amounted to 0.203.
